Measured values: the nanobody polyreactivity screen of Harvey et al. (2022)

Assay: yeast display, Sf9 membrane polyspecificity reagent, FACS + sequencing; frameworks hold sequencing errors
Summary of the method: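 Nanobodies from a synthetic yeast display library (Saccharomyces cerevisiae BJ5465), induced 36–48 hours with galactose, were stained 1 hour at 4 °C with 10% biotinylated, detergent-solubilized Sf9 membrane reagent, enriched on streptavidin microbeads, then FACS-sorted. Anti-HA (expression) and streptavidin (reagent binding) fluorescence set low and high (top ~1%) gates. Polyreactivity labels come from the gate of origin. Genes were colony-PCR amplified, MiSeq 2 × 250 sequenced and filtered by CDR length.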

| Sequence | polyreactivity (PSR sort gate) |
| --- | --- |
| QVQLVESGGGLVQAGGSHRLSCAASGRIFALNAMGWYRQAPGKERELVDAIDTSSGDTYYADSVKGRFTISRDNAKNTVNLQMNCLKPEDTAVYYCAAEGLSPYAYVFSNYDYWGQGTQVTVSS | low polyreactivity |
| QVQLVESGGGLVQAGGSLRLSCAASGSIFPAYTMGWYRPAPGKERELVAAITRRGGSTYYADSVKGRFTISRDNSKNTVYLQMNSLKPEDTAVYYCAAGGLYTPYDYWGQGTQVTVSS | low polyreactivity |
| QVQIVESGAVIVQAGGSLRLSCAASGSTFGSYTMGWYRQAPGKERELVASISRDGRTKYADSVKGRFTISRDNATNTVYLQMKSLKPEDTAVYYCANSKWRGRGGTYDYWGQVTQVTVSS | high polyreactivity |
| QVQLVESGGGLVQAGGSLRLSCAASGRTFSINAMGWYSQAPGKERELVAAISYTGGSTYYADSVKGRFTISRDNAKNTVYLQMNSLKPEDTAVYYCAASSSRTYYGRYYYWGQGTQVTVSS | high polyreactivity |
| QVQLVESGGGLVQAGGSLRLSCAASGSIFSSNAMGWYIQAPGKERELVAAITSGGSTTYADSVKGRFTISRDNAKNTVNLQMNSLKPEDTAVYYCAADPVYRYYHGWTYLDYDYWGQGTQVTVSS | low polyreactivity |
| QVQLVESGGGLVQAGGSLRISCAASGRTFSNYAMGWYRQAPGKERELVAAISGSGGSTRYADSVKGRFTISRDNANITVYLQMNSLKPEDTAVYYCAARGAGPLHNHYSWGQGTQVTVSS | high polyreactivity |
| QVQLVESGGGLVQAGGSLRLSCAASGRTFGFNAMGWSRPAPGKERELVAVITRGGSTYADSVKGRFTISRDNAKNTVYLQMNSLKPEDTAVYYCAAYRYGFKTWMDYWGQGTQVTVSS | high polyreactivity |
| QVQLVVSGGGLVHAGGSLRLSCAAYGFTVYKNTMGWYRQAPRKERELVAAISSSGSSTYYADTVKGRFTISRDNAKNTVYLQMNSLKPEDTAVYYCAAGRFAYHDDYWGQGTQVTVSS | high polyreactivity |
| QVQLVESGGGLVQAGGSLRLSCAASGLTFPENAMGWYRQAPGKEREMVASISDSDGITFYADSVKGSFTISRDNAKNTVYLQMNSLKPEDTAVYYCAADVAIAIPFSYDYWGQGSQVTVSS | low polyreactivity |
| QVQLVESGGGLVQAGCSLRLSCAASGRTFYYAMGWYRQAPGKERYADSVKGRFTISRDNAKNTVYLQMNSLKPEDTAVYYCAAKVPEPTSLDQSDYWGQGTQVTVSS | low polyreactivity |
| HVQLVETGGGLVQAGGSLRLSCAASGRTFDSYTMGWYRQAPGKERELVADITFTGGSTYYADSVKGRFTISRDNAKNTVYLQMNSLKPEATAVYYCNADREYKWYFRYDYWGQGTQVTVSS | low polyreactivity |
| QVQLVESGGGLVQAGGSLRLSCADSGSTIFGNAMGWYRQAPGKERELVAAISYSGDSTYYADSVKGRFTISRDNAMNTVYLQMNSLKPEDTAVYYCAAGFVIKYDFWGQGTQVTVSS | low polyreactivity |
| QVQLQESGGGLVQAGGSLRLSCAASGSITRYYDMGWYRQAPGKEREFVAGISGGAITYYADSLKGRFTISRDNAKNTVYLQMNSLKPEDTAVYYCAADTGVYQYHSYWGQGTQVTVSS | low polyreactivity |
| QVQLVESGGGVVQAGGSLRLSCAASGSTFYPYALGWYRQAPGKERELVAGITVIDGSTYYADSVKGRFTISRDNAKNTVYLQMNSLKPEDTAVYYCAVDAPNQVQEYGYWGQGTQVTVSS | low polyreactivity |
| QVQLVESGGGLVQAGGSLRLSCAASGRTFGYYAMGWYRQAPGKERELVAAITRTGGSTHYADSVKGRFTISRDNAKNTVYLQMNSLKPEDTAVYYCARDYRYTIPYDYWGQGTQVTVSS | low polyreactivity |
| QVQLVESGGGLVQAGGSLRLSCAASGRTFVRNAMGWYRQAPGKERELVAAISVDGSSTYYADSVKGRFTISRDNAKNTVYLQMNSLKPEDTAVYYCNADWDYRDFYDITYDYWGQGTQVTVSS | low polyreactivity |
| QVQLVESGGGLVQAGGSLRLSCAASGRIFGDYALGWYRQAPGKERELVAAISWSDGSTYYADSVKGRFTISRDKAKNTVYLQMNSLKPEDTAVYYCAAYGWGYSYVDVVVSDFYYWGQGTQVTVSS | low polyreactivity |
| QVQLVESGGVLVQAGASLRLSCAASVFTFRRYAMGWYRQAPGKERELVAAITRDDSTNYADSVKGRFTISRDNAKNTVYLQMNSLKPEDTAVYYCAARLWYPYYYWGQGTQVTVSS | high polyreactivity |
| QVQLVESGGGLVQAGGSLRLSCAASGSTFWFYAMGWYRPAPGKERELVAVISNSGSTYYADSVKGRFTISRDNAKNTVYLQMNSLQPEDTAVYYCNKDGGGDSYWYDYWGQGTQVTVSS | low polyreactivity |
| QVQLVESGGGLVQAGGSLRLSCDASGSTFTFNDMGWYRQAPGKERELVAAITSGGSTTYADSVKGRFTISRDNAKNTVYLQMNSLKPEDTAVYYCAADYVYFYFYGYDSWGQGTQVTVSS | low polyreactivity |
| QVQLVESGGGLVQAGGSLRLSCAASGRIFVLNAMGWYRQAPGKERELVAAITFSGGRTYYADSVKGRFTISRDNAKNTVYLQMNSLKPEDTAVYYCATRQDWRRTYGYWGQGTQVTVSS | low polyreactivity |
| QVQLVESGGGLVQAGGSLRLSCAASGRTFHSYAMGWYRQAPGKEWELVAGISWGGTRTTYADSVKGRFTISRDNSKNTVYLQMNSLKPEDTAVYYCNAVYYALGRSPPDYGYWGQGTQVTVSS | low polyreactivity |

| Sequence | polyreactivity (PSR sort gate) |
| --- | --- |
| QFQLVESGGGLVQAGGSLRLSCAASGLTFGYYAMGWYRQAPGKERELVAAITSRGGSTYYADSVKRRFTISRDNAKNTVYLQMNSLKPEDTAVYYCAARYAEYGSWGQGTQVTVSS | high polyreactivity |
| QVQLVESGGGLVQAGGSLRLSCGASGSIFRLNAMGWYRQAPGKERELVARIDSSGSTNYADSVKGRFTISRDNAKNTVYLQMNSLKPEDTAVYYCAAVLVLIVGMDSWGQGTQVTVSS | low polyreactivity |
| QVQLVESGGGLVQAGGSLRLSCAASGFTFYYNDMGWYRQAPGKERELVATITNS | low polyreactivity |
| QVQLVESGGGLVQAGGSLRLSCAAYGRTFYGYAMGWYRQAPGKEREFFAAITWRGGSTYYADSVKGRFSISRDNAKNNVFLQMNSLKPEDTAVYYCAADYRVYTRYGLRKFDYWGQCTQVTVSS | high polyreactivity |
| QVQLVESGGGIVQAGGSLRLSCAASGFIFSSYAMGWYRQAPGKERELVAAITVRAGRTYYADSVKGRFTISRDNAKKTVYLQMNSLKPEDTAVYYCNAVSTAVIGYEYDYWGQGTQVTVSS | high polyreactivity |
| QVQLQESCGGLVQAGGSLCLSCAASGTIFFDGDMGWYRQAPGKEREFVAAINPGGSAYYADSVKGRLPLAAITHTVYLQMNSLKPEDTAVYYCAAKLFDVYGYYYWGQGTHVTVSS | low polyreactivity |
| QVQLVESGGGLVQAGGSLRLSCAASGSTFYRYAMGWYRQAPGKERELVAAISTRSGSTYYADSVKGRFTISRDNAKNTVYLQMNSLKPEDTAVYYCAADGHKKTARKYYYWGQGTQVTVSS | low polyreactivity |
| QVQLVESGGGLVQAGGSLRLSCAASGSTFPRYAMGWYRQAPGKERELVATITSGGSTYYADSVKGCFTISRDNAKNTFYLQMNSLKPEDTAVYYCAAGYRWTYTSGTYIRYNYWGQVTQVTVSS | high polyreactivity |
| QVQLVESGGGLVQAGGSLRLSCAASGTTFVKNDMGWYRQAPGKERELVAAISGGSTNYADSVKGRFTISRDNAKNTVYLQMNSLKPEDTAVYYCAAVQWYTSIEGIQPYYYWGQGTQVTVSS | low polyreactivity |
| QVQLVESGGGLVQAGGSLRLSCAASGRTFDFYAMGWYRQAPGKERELDAAITFSTGSTTYADSVKGRFTISRDNAKNTVYLQMNSLKPEDTAVYYCNAYLYRKFGYRAYDYWGQGTQVTVSS | low polyreactivity |
| QVQLVDSGGGLVQAGGSLSLSCAASGYTMGYYTMGWYIEAPGKERELVATISRRGGSTSYADSVKGRFTISRDNAKNTVYLQMNSLKPEDTAVYYCNAQTSGRVGSQYYSYDGSWGQCTQVTVSS | high polyreactivity |
| QVQLVESGGGLVQAGGSLRLSCAASGRIFYYAMGWYRQAPGKERELVAVITYSGGNTYYADSVKGRFTISRDNAKNTVYLQMNSLKPEDTAVYYCAKAVSTKISRYYHYYKHYDYWGQGTQVTVSS | low polyreactivity |
| QVQHVESGGGLVQAGGSLRLSCASSGRIFYFYAMGWYRQAPGKLRELVAAISTSGGSTYYADSVKGRFKISRDNATNTVYLQMNSLKPEDPAVYYCAGRFRYYGSEYDYWGQGTQVTVSS | low polyreactivity |
| QVQLVESGGGLVQAGGSLRLSFAASGGTLDVYAMGWYRQAPGKEREFVAAISWSGGRTYYADSVKGRFTISRDNAKNTVYLQMISLKPEDTAVFFCATDLYISIRYGGYYWGQGTQVTVSS | high polyreactivity |
| QVQLVESGGGLFQAGGSLRLSSAASGSIFINNGMGWYRQAPGKESELVAAIYSGGSTYADSVKGRFTISRDNAKNTVYLQMNSLKPEDTAVYYCAVDVWLRGLYGYEYDYWGQGTQVTVSS | low polyreactivity |
| QVQLVESGGGLVQAGGSLRLSSAASGSILPLYAMGWYRQAPGKERELVADISWSGGDTYYADSVKGRFTISRDKAKNTVYLQMNSLKPEDTAVYYCNSRLDYSTYESSPVTRKRVYWGQGTQVTVSS | low polyreactivity |
| QVQLVESGGGLVQAGGSLRLSCAASGRIFSLYAMGWYRQAPGKERELVAAISKRGGSTYYADSVKGRFTISRDNAKNTVYLQMNSLKPEDTAVYYCATQLPFRKPWHDYWGQGTQVTVSS | high polyreactivity |
| QVQLVESGGGLVQAGGSLRLSCAASGNNLRYYAMGWYRQAPGKERELVAAITSSGGSTYYADSVKGRFTISRDNAKNTVYLKMNSLKPEDTAVYYCAAVFSYSRYNYWGQGTQVTVSS | high polyreactivity |
| QVQLVESGGGLVQAGGSLRLSCAASGFTFGYYAMGWYRQAPGKERELVARISRRGGTTYYADSVKGRFTISRDNAKTTVYLQMNSLKPEDTAVYYCATDGVWNRINRYDYWGQGTQVTVSS | high polyreactivity |
| QVQLVESGGGLVQAGGSLRLSFAASGRTFGTNGMGWYRQAPGKEREFVAAITWNGGGTYYADSVKGRFTISRDNAKNTVYLQMNSLKPEDTSVYYSAKRTRWNYKGYGTGGYYWGQGTQVTVSS | high polyreactivity |
| QVQLVESGGGLVQAGGSLRLSCAASGIIFPYYTMGWYRQAPGKERELVARITNGGRTYYADSVKGRFTISRDNAKNTVYLQMISLKPEDTAVYYCNAGRYYIGGYWGQGTQVTVSS | high polyreactivity |
